Laboratory results from US8008547B2, “Glyphosate-N-acetyltransferase (GAT) genes” (E.I. duPont de Nemours, priority 2000, dated 2011).

Assay: Standard protocol for determination of kcat and KM (continuous spectrophotometric assay, Acetyl CoA hydrolysis at 235 nm)
Format: biochemical
Conditions: purified protein, about 23° C., 0.2 mM acetyl CoA; for Kcat: 20 mM HEPES pH 6.8, 10% ethylene glycol; for Km: pH 6.8, glyphosate 0.125 to 10 mM
Protocol: KM was calculated from the initial reaction rates obtained from concentrations of glyphosate ranging from 0.125 to 10 mM, using the Lineweaver-Burke transformation of the Michaelis-Menten equation. kcat/KM was determined by dividing the value determined for kcat by the value determined for KM.
Using this methodology, kinetic parameters for a number of GAT polypeptides exemplified herein were determined. For example, the kcat, KM and kcat/KM for the GAT polypeptide corresponding to SEQ ID NO:445 have been determined to be 322 min^−1, 0.5 mM and 660 mM^−1 min^−1, respectively, using the assay conditions described above. The kcat, KM and kcat/KM for the GAT polypeptide corresponding to SEQ ID NO:457 have been determined to be 118 min^−1, 0.1 mM and 1184 mM^−1 min^−1, respectively, using the assay conditions described above. The kcat, KM and kcat/KM for the GAT polypeptide corresponding to SEQ ID NO:300 have been determined to be 296 min^−1, 0.65 mM and 456 mM^−1 min^−1, respectively, using the assay conditions described above. One of skill in the art can use these numbers to confirm that a GAT activity assay is generating kinetic parameters for a GAT suitable for comparison with the values given herein. For example, the conditions used to compare the activity of GATs should yield the same kinetic constants for SEQ ID NO: 300, 445 and 457 (within normal experimental variance) as those reported herein, when the conditions are used to compare a test GAT with the GAT polypeptides exemplified herein. Kinetic parameters for a number of GAT polypeptide variants were determined according to this methodology and are provided in Table 3.

| Molecule | Kcat | Km |
| --- | --- | --- |
| SEQ ID NO: 272: GAT polypeptide (protein, 10_17F6, GAT polypeptide) MIEVKPINAEDTYEIRHRILRPNQPLEACKYETDLLGGTFHLGGYYRGKLVSIASFHQAEHSELEGQKQYQLRGMATLEEYREQKAGSTLIRHAEELLRKKGADLLWCNARTSASGYYKKLGFSEQGEVYDIPPVGPHILMYKKLT | 0.798 s⁻¹ | 1400 µM |
| SEQ ID NO: 273: GAT polypeptide (protein, 10_18G9, GAT polypeptide) MIEVKPINAEDTYEIRHRILRPNQPLEACKYETDLLGGTFHLGGYYRGKLVSIASFHQAEHSELEGQKQYQLRGMATLEEYREQKAGSTLIRHAEELLRKKGADLLWCNARTSASGYYKKLGFSEQGGVYDIPPVGPHILMYKKLT | 0.4 s⁻¹ | 1200 µM |
| SEQ ID NO: 420: GAT polypeptide (protein, 7_9C9, GAT polypeptide) MIEVKPINAEDTYEIRHRILRPNQPLEACMYETDLLGGTFHLGGYYRGKLISIASFHQAEHPELEGQKQYQLRGMATLEGYREQKAGSTLIRHAEELLRKKGADLLWCNARTSASGYYKKLGFSEQGEVYDIPPIGPHILMYKKLT | 1.08 s⁻¹ | 1000 µM |
| SEQ ID NO: 431: GAT polypeptide (protein, 9_24F6, GAT polypeptide) MIEVKPINAEDTYEIRHRILRPNQPLEACKYETDLLRGAFHLGGYYRGKLISIASFHQAEHSELEGQKQYQLRGMATLEGYREQKAGSTLIRHAEALLRKKGADLLWCNARTSASGYYKKLGFSEQGEVYDIPPTGPHILMYKKLT | 0.875 s⁻¹ | 900 µM |
| SEQ ID NO: 433: GAT polypeptide (protein, 9_4H8, GAT polypeptide) MIEVKPINAEDTYEIRHRILRPNQPLEACMYETDLLGGTFHLGGYYRGKLISIASFNQAEHPELEGQKQYQLRGMATLEGYREQKAGSTLIRHAEELLRKKGADLLWCNARTSASGYYKKLGFSEQGEVYDIPPVGPHILMYKKLT | 0.785 s⁻¹ | 600 µM |
| SEQ ID NO: 430: GAT polypeptide (protein, 9_23A10, GAT polypeptide) MIEVKPINAEDTYEIRHRILRPNQPLEACKYETDLLGGTLHLGGYYRGKLVSIASFHQAEHPELEGQKQYQLRGMATLEGYRGQKAGSTLIRHAEELLRKKGADLLWCNARTSASGYYKKLGFSEQGGVYDIPPVGPHILMYKKLT | 0.35 s⁻¹ | 1000 µM |
| SEQ ID NO: 417: GAT polypeptide (protein, 7_2A11, GAT polypeptide) MIEVKPINAEDTYEIRHRILRPNQPLEACMYETDLLGGTFHLGGYYRGKLISIASFHQAEHSELEGQKQYQLRGMATLEGYREQKAGSTLIRHAEELLRKKGADLLWCNARTSASGYYKKLGFSEQGGVYDIPPVGPHILMYKKLT | 0.78 s⁻¹ | 1100 µM |
| SEQ ID NO: 427: GAT polypeptide (protein, 9_20F12, GAT polypeptide) MIEVKPINAEDTYEIRHRVLRPNQPLEACMYETDLLGGTFHLGGYYRGELVSIASFHQAEHPELEGQKQYQLRGMATLEGYREQKAGSTLIRHAEELLRKKGADLLWCNARTSASGYYKKLGFSEQGGVYDIPPVGPHILMYKKLT | 0.63 s⁻¹ | 1000 µM |
| SEQ ID NO: 419: GAT polypeptide (protein, 7_5C7, GAT polypeptide) MIEVKPINAEDTYEIRHRILRPNQPLEACMYETDLLGGTFHLGGYYRGKLISIASFHQAEHPELEGQKQYQLRGMATLEGYREQKVGSTLIRHAEELLRKKGADLLWCNARTSASGYYKKLGFSEQGGVYDIPPVGPHILMYKKLT | 0.745 s⁻¹ | 1000 µM |
| SEQ ID NO: 424: GAT polypeptide (protein, 9_15D8, GAT polypeptide) MIEVKPINAEDTYEIRHRILRPNQPLEACMYETDLLGGTFHLGGYYRGKLVSIASFHQAEHPELEGQKQYQLRGMATLEGYREQKAGSTLIRHAEALLRKKGADLLWCNARTSASGYYKKLGFSEQGEVYDTPPVGPHILMYKKLT | 1.788 s⁻¹ | 1100 µM |
| SEQ ID NO: 432: GAT polypeptide (protein, 9_4H10, GAT polypeptide) MIEVKPINAEDTYEIRHRILRPNQPLEACKYETDLLGGTLHLGGYYRGKLISIASFHQAEHPELEGQKQYQLRGMATLEGYREQKAGSTLIRHAEELLRKKGADLIWCNARTSASGYYKKLGFSEQGEVYDIPPVGPHILMYKKLT | 1.688 s⁻¹ | 1500 µM |
| SEQ ID NO: 428: GAT polypeptide (protein, 9_21C8, GAT polypeptide) MIEVKPINAEDTYEIRHRILRPNQPLEACMYETDLLGGTFHLGGYYRGKLISIASFHQAEHPELEGQKQYQLRGMATLEGYREQKAGSTLIRHAEELLRKKGADLLWCNARTSASGYYKKLGFSDQGEVYDIPPVGPHILMYKKLT | 0.477 s⁻¹ | 1200 µM |
| SEQ ID NO: 423: GAT polypeptide (protein, 9_15D5, GAT polypeptide) MIEVKPINAEDTYEIRHRILRPNQPLDACKYETDLLGGTFHLGGYYRGKLISIASFHQAEHPELEGQKQYQLRGMATLEGYREQKAGSTLIRHAEELLRKKGADLLWCNARTSASGYYKKLGFSEQGEVYDIPPVGPHILMYKKLT | 0.46 s⁻¹ | 1200 µM |
| SEQ ID NO: 418: GAT polypeptide (protein, 7_2D7, GAT polypeptide) MIEVKPINAEDTYEIRHRILRPNQPLEACKYETDLLGGTFHLGGYYRGKLISIASFHQAEHPELEGQKQYQLRGMATLEGYREQKAGSTLIRHAEELLRKKGADLLWCNARTSASGYYKKLGFSEQGEVYDIPPVGPHILMYKKLT | 0.915 s⁻¹ | 1100 µM |
| SEQ ID NO: 422: GAT polypeptide (protein, 9_13F1, GAT polypeptide) MIEAKPINAEDTYEIRHRILRPNQPLEACMYETDLLGGTFHLGGYYRGKLVSIASFHQAEHTELEGQKQYQLRGMATLEEYREQKAGSTLIRHAEELLRKKGADLLWCNARTSASGYYKKLGFSEQGEVYDIPPVGPHILMYKKLT | 0.527 s⁻¹ | 1100 µM |
| SEQ ID NO: 434: GAT polypeptide (protein, 9_8H1, GAT polypeptide) MIEVKPITAEDTYEIRHRILRPNQPLEACKYETDLLGGTFHLGGYYRGKLISIASFHQAEHPELEGQKQYQLRGMATLEGYREQKAGSTLIRHAEELLRKKGADLLWCNARTSASGYYKKLGFSEQGEVYDIPPTGPHILMYKKLT | 1.25 s⁻¹ | 1700 µM |
| SEQ ID NO: 429: GAT polypeptide (protein, 9_22B1, GAT polypeptide) MIEVKPINAEDTYEIRHRILRPNQPLEACKYETDLLGGTFHLGGYYRGKLVSIASFHQAEHPELEGQKQYQLRGMATLEGYREQKAGSTLIRHAEELLRKKGADLLWCNARTSASGYYKKLGFSEQGEVYDLPPTGPHILMYKKLT | 0.835 s⁻¹ | 1400 µM |
| SEQ ID NO: 426: GAT polypeptide (protein, 9_18H2, GAT polypeptide) MIEVKPINAEDTYEIRHRILRPNQPLEACMYETDLLGGTFHLGGYYRGKLISIASFHQAEHPELVGQKQYQLRGMATLEGYREQKAGSTLIRHAEELLRKKGADLLWCNARTSASGYYKKLGFSEQGEVYDIPPVGPHILMYKKLT | 0.417 s⁻¹ | 1100 µM |
| SEQ ID NO: 425: GAT polypeptide (protein, 9_15H3, GAT polypeptide) MIEVKPINAEDTYEIRHRILRPNQPLEACMYETDMLRGAFHLGGYYRGKLISIASFHQAEHPELEGQKQYQLRGMATLEEYHEQKAGSTLIRHAEELLRKKGADLLWCNARTSASGYYKKLGFSEQGEVYNTPPVGPHILMYKKLT | 1.14 s⁻¹ | 1900 µM |
| SEQ ID NO: 421: GAT polypeptide (protein, 9_13F10, GAT polypeptide) MIEVKPINAEDTYEIRHRILRPNQPLEACKYETDLLRGAFHLGGYYRGKLVSIASFHQAEHSELEGQKQYQLRGMATLEEYREQKAGSTLIRHAEELLRKKGADLLWCNARTSASGYYKKLGFSEQGEVYDIPPTGPHILMYKKLT | 0.578 s⁻¹ | 700 µM |
| SEQ ID NO: 435: GAT polypeptide (protein, 9_9H7, GAT polypeptide) MIEVKPINAEDAYEIRHRILRPNQPLEACKYETDLLGSTFHLGGYYRGKLISIASFHQAEHPELEGQKQYQLRGMATLEEYREQKAGSTLIRHAEELLRKKGADLLWCNARTSASGYYKKLGFSEQGEVYDIPPVGPHILMYKKLT | 0.467 s⁻¹ | 700 µM |
